{
  "source": "patent US20210063414A1",
  "about": "“METHODS FOR PREVENTING AND/OR TREATING BONE LOSS CONDITIONS BY MODULATING IRISIN” (Dana-Farber Cancer Institute, Inc., priority 2018, published 2021)",
  "key": {"[1]": {"target": "T1, MLO-Y4 cell surface proteins (Mus musculus, UniProt Q99KR7)", "T1 construct": "endogenous in cells; host or cells: MLO-Y4", "T1 sequence (Q99KR7 30-206)": "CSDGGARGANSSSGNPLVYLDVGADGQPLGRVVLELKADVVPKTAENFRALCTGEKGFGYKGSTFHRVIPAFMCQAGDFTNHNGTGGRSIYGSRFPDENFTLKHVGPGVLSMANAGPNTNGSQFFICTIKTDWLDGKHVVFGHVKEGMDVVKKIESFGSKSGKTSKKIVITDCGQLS", "test": "Crosslinking/co-immunoprecipitation/mass spectrometry (TMT quantitative proteomics) to identify irisin receptors", "type": "binding", "settings": "co-precipitated protein Ppif (PPIF_MOUSE)", "outline": "(§1)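 Mouse MLO-Y4 cells were switched to serum-free FreeStyle medium for 4 h, chilled, then exposed to 10 nM His-tagged irisin (or adipsin as control) for 20 min. Cells were crosslinked with 1.5 mM DTSSP (30 min, ice), and bound proteins were pulled down on Ni-NTA and eluted with 250 mM imidazole. Eluates were separated by SDS-PAGE, trypsin-digested in gel, TMT 6-plex labelled and quantified by MS3-based LC-MS/MS on an Orbitrap Fusion Lumos.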"}, "[2]": {"target": "T2, MLO-Y4 cell surface proteins (Mus musculus, UniProt E9PW83)", "T2 construct": "endogenous in cells; host or cells: MLO-Y4", "T2 sequence (E9PW83 1-1143)": "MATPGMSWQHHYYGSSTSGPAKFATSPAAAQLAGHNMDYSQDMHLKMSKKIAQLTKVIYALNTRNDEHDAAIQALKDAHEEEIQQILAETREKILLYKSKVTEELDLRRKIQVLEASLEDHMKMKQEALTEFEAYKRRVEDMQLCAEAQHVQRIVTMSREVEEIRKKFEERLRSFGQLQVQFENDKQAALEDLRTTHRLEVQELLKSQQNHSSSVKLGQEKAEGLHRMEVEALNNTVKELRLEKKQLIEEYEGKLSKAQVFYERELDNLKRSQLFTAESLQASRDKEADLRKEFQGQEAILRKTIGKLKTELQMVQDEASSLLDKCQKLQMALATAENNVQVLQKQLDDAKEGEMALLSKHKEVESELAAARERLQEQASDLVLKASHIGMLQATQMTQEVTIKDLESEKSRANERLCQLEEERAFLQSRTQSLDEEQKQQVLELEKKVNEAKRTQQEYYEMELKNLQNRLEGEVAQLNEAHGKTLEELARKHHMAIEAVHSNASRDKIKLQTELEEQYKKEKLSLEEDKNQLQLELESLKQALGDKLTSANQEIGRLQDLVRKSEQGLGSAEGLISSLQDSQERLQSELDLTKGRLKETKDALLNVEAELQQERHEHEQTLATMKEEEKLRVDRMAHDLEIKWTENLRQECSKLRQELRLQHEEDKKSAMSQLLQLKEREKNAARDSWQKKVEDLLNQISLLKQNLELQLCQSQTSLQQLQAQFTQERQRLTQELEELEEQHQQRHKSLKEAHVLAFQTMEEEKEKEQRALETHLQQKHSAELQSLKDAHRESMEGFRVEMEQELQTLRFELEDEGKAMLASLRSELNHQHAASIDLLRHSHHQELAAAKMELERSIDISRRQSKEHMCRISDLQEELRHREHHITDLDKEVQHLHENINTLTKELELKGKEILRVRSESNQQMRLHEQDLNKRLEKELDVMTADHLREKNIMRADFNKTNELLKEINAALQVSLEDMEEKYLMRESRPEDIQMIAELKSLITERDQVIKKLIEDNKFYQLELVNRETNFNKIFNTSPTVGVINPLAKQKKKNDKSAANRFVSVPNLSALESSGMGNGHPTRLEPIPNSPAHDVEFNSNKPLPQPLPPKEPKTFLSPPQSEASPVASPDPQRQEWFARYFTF", "test": "Crosslinking/co-immunoprecipitation/mass spectrometry (TMT quantitative proteomics) to identify irisin receptors", "type": "binding", "settings": "co-precipitated protein Fam184a (E9PW83_MOUSE)", "outline": "as §1"}},
  "data": [
    {"substance": "adipsin", "values": [
      {"measurement": "TMT signal-to-noise ratio", "setting": "[1]", "value": 249.839},
      {"measurement": "TMT signal-to-noise ratio", "setting": "[2]", "value": 877.972}
    ]}
  ]
}
